Biological target: the molecule itself
Experiment: solid-state NMR (magic-angle spinning, 13C-detected resonance assignment); S64V-EmrE in POPC proteoliposomes, 25:1 lipid/EmrE monomer, pH 5.8; 2D NCA shows separate peaks for chain A and chain B

B1: S64V-EmrE (natural protein, E. coli, UniProt P23895 1-110, looked up)
chain: MNPYIYLGGAILAEVIGTTLMKFSEGFTRLWPSVGTIICYCASFWLLAQTLAYIPTGIAYAIWVGVGIVLISLLSWGFFGQRLDLPAIIGMMLICAGVLIINLLSRSTPH
notes: also called EmrE mutant S64V; EmrE S64V
binding result: binds

Source: article PMC12513983, “Backbone and sidechain ^1H, ^15N and ^13C resonance assignments of a multidrug efflux membrane protein using solution and solid-state NMR” (Biomolecular Nmr Assignments, 2025)
